Substrate: O=C(CNc1ccccc1)[C@H](O)[C@H](O)COP(=O)(O)O
Experiment: discontinuous spectrophotometric assay of IGP formation (A278)
Format: biochemical, Pseudomonas aeruginosa
Conditions: 50 mM Tris-HCl, 4 mM MgCl2, 0.5 mM TCEP, pH 7.0, 25 °C, substrate made enzymatically in situ from aniline and PRPP, 2.5 μM enzyme

B1: PaIGPS (Pseudomonas aeruginosa PAO1) (protein)
chain: MSVPTVLQKILARKAEEVAERRARVNLAEVERLARSADAPRGFANALLERAKRKEPAVIAEIKKASPSKGVLREHFVPAEIARSYEAGGAACLSVLTDVDFFQGADAYLKEARAACALPVIRKDFMIDPYQIVEARAIGADCILLIVSALDDVLMAELAATAKSVGLDVLVEVHDGTELERALKTLDTPLVGINNRNLHTFEVSLETTLDLLPEIPRDRLVVTESGILNRADVELMEVSEVYAFLVGEAFMRADDPGLELKRLFFQERGAVVLGADPD
Km: 180 ± 50 µM | kcat: 0.00442 ± 0.000389 s⁻¹

Reference: publication PMC7681013, “Structure and kinetics of indole-3-glycerol phosphate synthase from Pseudomonas aeruginosa: Decarboxylation is not essential for indole formation” (The Journal of Biological Chemistry, 2020)
